{"source": "patent US20240067714A1", "key": {"Human TNFα (human) [1]": {"target": "Human TNFα (human) (UniProt P01375)", "assay": "ELISA, human TNFα, relative to HUMIRA"}, "Macaque TNFα (macaque) [2]": {"target": "Macaque TNFα (macaque) (UniProt P79337)", "assay": "SPR, macaque TNFα, relative to HUMIRA"}, "FcγRIIIA (CD16a, F167) [3]": {"target": "FcγRIIIA (CD16a, F167) (UniProt P08637)", "assay": "SPR, heterogenous ligand model, KD1, against HUMIRA"}, "FcγRI (CD64) [4]": {"target": "FcγRI (CD64) (UniProt P12314)", "assay": "SPR, heterogenous ligand model, KD1, against HUMIRA"}, "FcγRIIIA (CD16a, V167) [5]": {"target": "FcγRIIIA (CD16a, V167) (UniProt P08637)", "assay": "SPR, heterogenous ligand model, KD1, against HUMIRA"}, "FcγRIIIA (CD16a, F167) [6]": {"target": "FcγRIIIA (CD16a, F167) (UniProt P08637)", "assay": "SPR, heterogenous ligand model, Mean KD2"}, "FcγRI (CD64) [7]": {"target": "FcγRI (CD64) (UniProt P12314)", "assay": "SPR, heterogenous ligand model, Mean KD2"}, "FcγRIIIA (CD16a, V167) [8]": {"target": "FcγRIIIA (CD16a, V167) (UniProt P08637)", "assay": "SPR, heterogenous ligand model, Mean KD2"}, "Human TNFα (human) [9]": {"target": "Human TNFα (human) (UniProt P01375)", "assay": "SPR, human TNFα, relative to HUMIRA"}, "FcγRIIIA (CD16a, F167) [10]": {"target": "FcγRIIIA (CD16a, F167) (UniProt P08637)", "assay": "SPR, heterogenous ligand model, KD2, against HUMIRA"}, "FcγRI (CD64) [11]": {"target": "FcγRI (CD64) (UniProt P12314)", "assay": "SPR, heterogenous ligand model, KD2, against HUMIRA"}, "FcγRIIIA (CD16a, V167) [12]": {"target": "FcγRIIIA (CD16a, V167) (UniProt P08637)", "assay": "SPR, heterogenous ligand model, KD2, against HUMIRA"}, "FcγRIIIB (CD16b) [13]": {"target": "FcγRIIIB (CD16b) (UniProt O75015)", "assay": "SPR, Mean (one KD printed)"}, "Human TNFα (human) [14]": {"target": "Human TNFα (human) (UniProt P01375)", "assay": "Binding ELISA to hTNFα"}, "Macaque TNFα (macaque) [15]": {"target": "Macaque TNFα (macaque) (UniProt P79337)", "assay": "ELISA, macaque TNFα, relative to HUMIRA"}, "FcγRIIIB (CD16b) [16]": {"target": "FcγRIIIB (CD16b) (UniProt O75015)", "assay": "SPR, against HUMIRA"}, "FcRn (FCGRT&B2M) [17]": {"target": "FcRn (FCGRT&B2M) (UniProt P55899)", "assay": "SPR, steady state model, Mean"}, "FcγRIIB (CD32b) [18]": {"target": "FcγRIIB (CD32b) (UniProt P31994)", "assay": "SPR, steady state model, Mean"}, "FcγRIIA (CD32a, H167) [19]": {"target": "FcγRIIA (CD32a, H167) (UniProt P12318)", "assay": "SPR, steady state model, Mean"}, "FcγRIIIA (CD16a, F167) [20]": {"target": "FcγRIIIA (CD16a, F167) (UniProt P08637)", "assay": "SPR, heterogenous ligand model, Mean KD1"}, "FcγRI (CD64) [21]": {"target": "FcγRI (CD64) (UniProt P12314)", "assay": "SPR, heterogenous ligand model, Mean KD1"}, "FcγRIIIA (CD16a, V167) [22]": {"target": "FcγRIIIA (CD16a, V167) (UniProt P08637)", "assay": "SPR, heterogenous ligand model, Mean KD1"}, "Human TNFα (human) [23]": {"target": "Human TNFα (human) (UniProt P01375)", "assay": "cell-based or functional assay"}, "FcRn (FCGRT&B2M) [24]": {"target": "FcRn (FCGRT&B2M) (UniProt P55899)", "assay": "SPR, steady state model, against HUMIRA"}, "FcγRIIB (CD32b) [25]": {"target": "FcγRIIB (CD32b) (UniProt P31994)", "assay": "SPR, steady state model, against HUMIRA"}, "FcγRIIA (CD32a, H167) [26]": {"target": "FcγRIIA (CD32a, H167) (UniProt P12318)", "assay": "SPR, steady state model, against HUMIRA"}, "Macaque TNFα (macaque) [27]": {"target": "Macaque TNFα (macaque) (UniProt P79337)", "assay": "ELISA, macaque TNFα, reference"}, "Macaque TNFα (macaque) [28]": {"target": "Macaque TNFα (macaque) (UniProt P79337)", "assay": "SPR, macaque TNFα, reference"}}, "note": "pKd: −log10 of the molar value."}
{"substance": "Adalimumab K84N-D86N (A-8486S) (antibody)", "values": [{"measurement": "Rel. binding", "setting": "Human TNFα (human) [1]", "result": 86, "unit": "%"}, {"measurement": "Rel. binding affinity", "setting": "Macaque TNFα (macaque) [2]", "result": 77, "unit": "%"}, {"measurement": "Fold change (KD(HUMIRA)/KD(A-8486S))", "setting": "FcγRIIIA (CD16a, F167) [3]", "result": 21.3, "unit": "fold"}, {"measurement": "Rel. binding affinity (KD(HUMIRA)/KD(A-8486S)*100)", "setting": "FcγRIIIA (CD16a, F167) [3]", "result": 2130, "unit": "%"}, {"measurement": "Fold change (KD(HUMIRA)/KD(A-8486S))", "setting": "FcγRI (CD64) [4]", "result": 1.7, "unit": "fold"}, {"measurement": "Rel. binding affinity (KD(HUMIRA)/KD(A-8486S)*100)", "setting": "FcγRI (CD64) [4]", "result": 174, "unit": "%"}, {"measurement": "Fold change (KD(HUMIRA)/KD(A-8486S))", "setting": "FcγRIIIA (CD16a, V167) [5]", "result": 29.8, "unit": "fold"}, {"measurement": "Rel. binding affinity (KD(HUMIRA)/KD(A-8486S)*100)", "setting": "FcγRIIIA (CD16a, V167) [5]", "result": 2980, "unit": "%"}, {"measurement": "pKd", "setting": "FcγRIIIA (CD16a, F167) [6]", "result": 6.91}, {"measurement": "pKd", "setting": "FcγRI (CD64) [7]", "result": 8.20}, {"measurement": "pKd", "setting": "FcγRIIIA (CD16a, V167) [8]", "result": 7.56}, {"measurement": "Rel. binding affinity", "setting": "Human TNFα (human) [9]", "result": 84, "unit": "%"}, {"measurement": "Fold change (KD(HUMIRA)/KD(A-8486S))", "setting": "FcγRIIIA (CD16a, F167) [10]", "result": 9, "unit": "fold"}, {"measurement": "Rel. binding affinity (KD(HUMIRA)/KD(A-8486S)*100)", "setting": "FcγRIIIA (CD16a, F167) [10]", "result": 902, "unit": "%"}, {"measurement": "Fold change (KD(HUMIRA)/KD(A-8486S))", "setting": "FcγRI (CD64) [11]", "result": 1.1, "unit": "fold"}, {"measurement": "Rel. binding affinity (KD(HUMIRA)/KD(A-8486S)*100)", "setting": "FcγRI (CD64) [11]", "result": 109, "unit": "%"}, {"measurement": "Fold change (KD(HUMIRA)/KD(A-8486S))", "setting": "FcγRIIIA (CD16a, V167) [12]", "result": 2.8, "unit": "fold"}, {"measurement": "Rel. binding affinity (KD(HUMIRA)/KD(A-8486S)*100)", "setting": "FcγRIIIA (CD16a, V167) [12]", "result": 280, "unit": "%"}, {"measurement": "pKd", "setting": "FcγRIIIB (CD16b) [13]", "result": 6.82}, {"measurement": "Normalized EC50 vs HUMIRA", "setting": "Human TNFα (human) [14]", "result": 116, "unit": "%"}, {"measurement": "Rel. binding", "setting": "Macaque TNFα (macaque) [15]", "result": 99, "unit": "%"}, {"measurement": "Fold change (KD(HUMIRA)/KD(A-8486S))", "setting": "FcγRIIIB (CD16b) [16]", "result": 10.9, "unit": "fold"}, {"measurement": "Rel. binding affinity (KD(HUMIRA)/KD(A-8486S)*100)", "setting": "FcγRIIIB (CD16b) [16]", "result": 1090, "unit": "%"}, {"measurement": "pKd", "setting": "FcRn (FCGRT&B2M) [17]", "result": 5.96}, {"measurement": "pKd", "setting": "FcγRIIB (CD32b) [18]", "result": 5.66}, {"measurement": "pKd", "setting": "FcγRIIA (CD32a, H167) [19]", "result": 6.11}, {"measurement": "pKd", "setting": "FcγRIIIA (CD16a, F167) [20]", "result": 7.91}, {"measurement": "pKd", "setting": "FcγRI (CD64) [21]", "result": 9.49}, {"measurement": "pKd", "setting": "FcγRIIIA (CD16a, V167) [22]", "result": 8.57}, {"measurement": "L929 apoptosis, Rel. IC50", "setting": "Human TNFα (human) [23]", "result": 89, "unit": "%"}, {"measurement": "Fold change (KD(HUMIRA)/KD(A-8486S))", "setting": "FcRn (FCGRT&B2M) [24]", "result": 0.7, "unit": "fold"}, {"measurement": "Rel. binding affinity (KD(HUMIRA)/KD(A-8486S)*100)", "setting": "FcRn (FCGRT&B2M) [24]", "result": 71, "unit": "%"}, {"measurement": "Fold change (KD(HUMIRA)/KD(A-8486S))", "setting": "FcγRIIB (CD32b) [25]", "result": 1.4, "unit": "fold"}, {"measurement": "Rel. binding affinity (KD(HUMIRA)/KD(A-8486S)*100)", "setting": "FcγRIIB (CD32b) [25]", "result": 138, "unit": "%"}, {"measurement": "Fold change (KD(HUMIRA)/KD(A-8486S))", "setting": "FcγRIIA (CD32a, H167) [26]", "result": 0.9, "unit": "fold"}, {"measurement": "Rel. binding affinity (KD(HUMIRA)/KD(A-8486S)*100)", "setting": "FcγRIIA (CD32a, H167) [26]", "result": 92, "unit": "%"}]}
{"substance": "Adalimumab K84N (A-84S) (antibody)", "values": [{"measurement": "Normalized EC50 vs HUMIRA", "setting": "Human TNFα (human) [14]", "result": 121, "unit": "%"}]}
{"substance": "HUMIRA (adalimumab) (antibody)", "values": [{"measurement": "Rel. binding", "setting": "Macaque TNFα (macaque) [27]", "result": 100, "unit": "%"}, {"measurement": "pKd", "setting": "FcγRIIIA (CD16a, F167) [6]", "result": 5.95}, {"measurement": "pKd", "setting": "FcγRI (CD64) [7]", "result": 8.16}, {"measurement": "pKd", "setting": "FcγRIIIA (CD16a, V167) [8]", "result": 7.12}, {"measurement": "pKd", "setting": "FcγRIIIB (CD16b) [13]", "result": 5.78}, {"measurement": "Rel. binding affinity", "setting": "Macaque TNFα (macaque) [28]", "result": 100, "unit": "%"}, {"measurement": "pKd", "setting": "FcRn (FCGRT&B2M) [17]", "result": 6.11}, {"measurement": "pKd", "setting": "FcγRIIB (CD32b) [18]", "result": 5.52}, {"measurement": "pKd", "setting": "FcγRIIA (CD32a, H167) [19]", "result": 6.14}, {"measurement": "pKd", "setting": "FcγRIIIA (CD16a, F167) [20]", "result": 6.59}, {"measurement": "pKd", "setting": "FcγRI (CD64) [21]", "result": 9.25}, {"measurement": "pKd", "setting": "FcγRIIIA (CD16a, V167) [22]", "result": 7.10}]}
